We go through 22 molecules from patent US20160228506A1, “Compositions and Formulations for Prevention and Reduction of Tumorigenesis, Cancer Cell Proliferation and Invasion, and Methods of Production and Use Thereof in Cancer Treatment” (PRONUTRIA, INC., priority 2013, published 2016).

Data set [1] is described as follows: SGF digest of 168 nutritive polypeptide library, intact protein by LC-MS/MS. The conditions noted are these: 168 nutritive polypeptide library SGF digest, LC-MS/MS spectral counts. It is filed as in vitro ADME. The method, boiled down:
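Spectral-count ratios (10 min vs 0 min, peak gel fraction plus neighbours) give the percent of each protein left intact after SGF digestion of a pooled, IMAC-purified 168-member recombinant library. Samples were gel-fractionated, trypsinised in-gel and run on Orbitrap nanoLC-MS/MS, requiring two unique peptides at 1% FDR.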

Data set [2] in a line: Intact half-life during simulated gastric fluid (SGF) digestion. The conditions noted are these: SGF pH 1.5, pepsin:polypeptide 1:20 w/w, 37° C.; intact protein.

B1: SEQID-00618: protein of the 168 nutritive polypeptide library (protein)
chain: MDAGGKIKKGAGGRKGGGPKKKPVSRSVKAGLQFPVGRIGRYLKKGRYAQRVGTGAPVYLAAVLEYLAAEVLELAGNAARDNKKNRIIPRHVLLAVRNDEELGKLLAGVTIAHGGVLPNINPVLLPKKTERASKEPKSPSKATKSPKKA
modifications: Glycine max
notes: protein of the 168 nutritive polypeptide library
With B1, the “% Intact Protein at 10 min” value in data set [1] stood at 0%.

B2: SEQID-00619: protein of the 168 nutritive polypeptide library (protein, listed as Linum usitatissimum)
chain: MAPKAAEKKPAEKKPAEEKKAEKAPAEKKPRAEKKLPKEGGAAAADKKKKRNKKNVETYKIYIFKVLKQVHPDIGISSKAMGIMNSFINDIFEKLAAESSRLARYNKKPTITSREIQTAVRLVLPGELAKHAVSEGTKAVTKFTSS
With B2, the “% Intact Protein at 10 min” value in data set [1] was determined as 68.5%.

B3: SEQID-00633: protein of the 168 nutritive polypeptide library (protein, listed as Saccharomyces cerevisiae)
chain: MSDAGRKGFGEKASEALKPDSQKSYAEQGKEYITDKADKVAGKVQPEDNKGVFQGVHDSAEKGKDNAEGQGESLADQARDYMGAAKSKLNDAVEYVSGRVHGEEDPTKK
modifications: source: /note="strain ATCC 204508 / S288c"
notes: as for B1
Take B3: the “% Intact Protein at 10 min” value in data set [1] amounted to 92.1%.

B4: SEQID-00625: protein of the 168 nutritive polypeptide library (protein)
chain: MPFKRYVEIGRVAQINYGKEYGRLVVIVDVIDQNRALVDAPDMVRSQVNFKRLSLTDIKIDIKRVPKKKDLVKAMEDADVKTKWEKSSWGRKLIVRKRRASLNDFDRFKIMLAKIKKAAVVRQELAKLRKSA
modifications: Glycine max
notes: as for B1
Consider B4, for which, in data set [1], the “% Intact Protein at 10 min” value turned out to be 0%.

B5: SEQID-00284: nutritive polypeptide (protein, listed as Arabidopsis thaliana)
chain: KLEHGVHVVSGTPGRVCDMIKRRSLRTRAIKLLILDESDEMLSRGFKDQIYDVYRYLPPDLQVCLVSATLPHEILEMTSKFMTEPVKILVKRDELTLEGIKQFFVAVEKEEWK
On to B5, for which the “SGF Half-life (t½)” value in data set [2] is on record as 1 min.

B6: SEQID-00643: protein of the 168 nutritive polypeptide library (protein, listed as Linum usitatissimum)
chain: MVGCGRIGKLLLQRLKPFGCNLLYHDRLKMEPELETQIGAKFEEDVDAMLPKCDVVVINTPLTEKTKGMFDKDRILKMKKG
As to B6, in data set [1], the “% Intact Protein at 10 min” value stood at 13.6%.

B7: SEQID-00638: protein of the 168 nutritive polypeptide library (protein)
chain: MKTNELVQRVAEKAKLPKKRVRAILDLAFSAISEEIESGQPVVVRGLGKFTLKEQPARTKTNPETGETTEVPARTVVNFRVIKPSKDKEEADS
modifications: Arthrospira platensis NIES-39
notes: as for B1
Consider B7, for which the “% Intact Protein at 10 min” value in data set [1] worked out at 0%.

B8: SEQID-00613: protein of the 168 nutritive polypeptide library (protein)
chain: MGLFDRIGRVVRANLNDLVNKAEDPEKILEQAVIEMQEDLIQLRQAVAQTIAQQKRSQQQYNQAQSQANQWQSRAQLALQKGDENLAREALQRKKGYLETANTLEISLRQQTEQVETLKRNLVSLESKISEAKTKKNMLKARAQAAKANEQLNNVLGGINTSSATSVFERMEEKVMIQEAKSQAAAELMGSGLEEQFRALEEGSDVDDELAAMKAQLAGAPANQPQLSPSAPTDSSTSNPEIDNELEELRRELNK
modifications: Arthrospira platensis C1
notes: as for B1
B8: the “% Intact Protein at 10 min” value in data set [1] is recorded as 0%.

B9: SEQID-00620: protein of the 168 nutritive polypeptide library (protein, listed as Saccharomyces cerevisiae)
chain: MSDVEEVVEVQEETVVEQTAEVTIEDALKVVLRTALVHDGLARGLRESTKALTRGEALLVVLVSSVTEANIIKLVEGLANDPENKVPLIKVADAKQLGEWAGLGKIDREGNARKVVGASVVVVKNWGAETDELSMIMEHFSQQ
modifications: source: /note="strain ATCC 204508 / S288c"
notes: as for B1
Take B9: the “% Intact Protein at 10 min” value in data set [1] came to 0%.

B10: SEQID-00626: protein of the 168 nutritive polypeptide library (protein, listed as Lactobacillus acidophilus)
chain: MVMTDPIADYLTRIRNANMAKHDSVEIPASNIKKSISEILKREGFIRDYEVADDNKQGVIKVFLKYGPNGERVISGLKRISKPGLRNYVSAEDLPKVLNGLGIAIVSTSAGVITDKEARQKNVGGEVIAYIW
modifications: source: /note="strain 30SC"
notes: as for B1
Turning to B10, the “% Intact Protein at 10 min” value in data set [1] came to 0%.

B11: SEQID-00648: protein of the 168 nutritive polypeptide library (protein)
chain: MKRVHLPTDRETGKFRGFAFVEMNTEEEEIHAIEELDGAEWMGREIRVNLARPREDKKPSDRGGRKPRY
modifications: Arthrospira platensis C1
notes: as for B1
In the case of B11, the “% Intact Protein at 10 min” value in data set [1] was 39.5%.

B12: SEQID-00624: protein of the 168 nutritive polypeptide library (protein)
chain: MSEKTDQILEQLKSLSLLEASELVKQIEEAFGVDASASAGGGMMMMAAPGMAAPGAEAAAEEEKTEFDVILTEFPADKKIAVLKVVRSITGLGLKEAKDLVESAPKAIKEATTKEDAESIKKQLEESGAKVEVK
modifications: Arthrospira platensis NIES-39
notes: as for B1
For B12, the “% Intact Protein at 10 min” value in data set [1] was determined as 0%.

B13: SEQID-00645: protein of the 168 nutritive polypeptide library (protein, listed as Saccharomyces cerevisiae)
chain: MAYTSHLSSKTGLHFGRLSLRSLTAYAPNLMLWGGASMLGLFVFTEGWPKFQDTLYKKIPLLGPTLEDHTPPEDKPN
modifications: source: /note="strain ATCC 204508 / S288c"
notes: as for B1
For B13, the “% Intact Protein at 10 min” value in data set [1] was determined as 0%.

B14: SEQID-00612: protein of the 168 nutritive polypeptide library (protein, listed as Oryza sativa)
chain: MICLRAAFPLTSSPLRRLALKPSSSRAAAAAMSSAIAAPVEHIVLIKVRPEAASSGAAAAMVSSLQALSTAVPGLSYIHVGPVLRLRSPAAEALGPTHVLHSRYATKPDLAAYAAHPAHVAAVQGHVLPNALDSTAIDWVNAALVPSPVNPGSAVRLSLAKLKEGVEAHQLAEKLAAATAAAGEAKGAKVSFGENFSPARAKGYQFGMVAVFDSVEGLDAVDGDGKVEAAKAIVRPLLDDVLELEFVVGPAAAEAPAPANL
modifications: source: /note="subsp. japonica"
notes: as for B1
Regarding B14, in data set [1], the “% Intact Protein at 10 min” value was determined as 0%.

B15: SEQID-00641: protein of the 168 nutritive polypeptide library (protein, listed as Saccharomyces cerevisiae)
chain: MLPRSALARSLQLQRGVAARFYSEGSTGTPRGSGSEDSFVKRERATEDFFVRQREKEQLRHLKEQLEKQRKKIDSLENKIDSMTK
modifications: source: /note="strain ATCC 204508 / S288c"
notes: as for B1
Turning to B15, in data set [1], the “% Intact Protein at 10 min” value amounted to 21.2%.

B16: SEQID-00617: protein of the 168 nutritive polypeptide library (protein)
chain: MNKEQLVQETSIKAGVTKKQADAIISAICECIMDAVADGEKVTLVGFGSFEARHRKAREGRNPSTGQPMTIPATTVPAFSAGKAFKERVANESNENVA
modifications: Arthrospira platensis NIES-39
notes: as for B1
With B16, the “% Intact Protein at 10 min” value in data set [1] is listed as 43.9%.

B17: SEQID-00236: nutritive polypeptide (protein, listed as Bos taurus)
chain: ALQEAHQQTLDDLQAEEDKVNTLTKAKTKLEQQVDDLEGSLEQEKKLRMDLERAKRKLEGDLKLA
On to B17, for which the “SGF Half-life (t½)” value in data set [2] is 10 min.

B18: SEQID-00628: protein of the 168 nutritive polypeptide library (protein, listed as Saccharomyces cerevisiae)
chain: MSDFQKEKVEEQEQQQQQIIKIRITLTSTKVKQLENVSSNIVKNAEQHNLVKKGPVRLPTKVLKISTRKTPNGEGSKTWETYEMRIHKRYIDLEAPVQIVKRITQITIEPGVDVEVVVASN
modifications: source: /note="strain ATCC 204508 / S288c"
notes: as for B1
For the molecule B18, the “% Intact Protein at 10 min” value in data set [1] was determined as 0%.

B19: SEQID-00632: protein of the 168 nutritive polypeptide library (protein, listed as Saccharomyces cerevisiae)
chain: MSTVTKYFYKGENTDLIVFAASEELVDEYLKNPSIGKLSEVVELFEVFTPQDGRGAEGELGAASKAQVENEFGKGKKIEEVIDLILRNGKPNSTTSSLKTKGGNAGTKAYN
modifications: source: /note="strain ATCC 204508 / S288c"
notes: as for B1
In the case of B19, the “% Intact Protein at 10 min” value in data set [1] stood at 1.2%.

B20: SEQID-00634: protein of the 168 nutritive polypeptide library (protein, listed as Saccharomyces cerevisiae)
chain: MPPKQQLSKAAKAAAALAGGKKSKKKWSKKSMKDRAQHAVILDQEKYDRILKEVPTYRYVSVSVLVDRLKIGGSLARIALRHLEKEGIIKPISKHSKQAIYTRATASE
modifications: source: /note="strain ATCC 204508 / S288c"
notes: as for B1
On to B20, for which the “% Intact Protein at 10 min” value in data set [1] worked out at 36.8%.

B21: SEQID-00623: protein of the 168 nutritive polypeptide library (protein, listed as Solanum lycopersicum)
chain: MKPAEKKPAEKTPVAEKAPAEKKPKAGKKLPKDAAAGDKKKKRSKKAVETYKIYIFKVLKQVHPDIGISSKAMGIMNSFINDIFEKLAQEASRLARYNKKPTITSREIQTAVRLVLPGELAKHAVSEGTKAVTKFTSS
For B21, the “% Intact Protein at 10 min” value in data set [1] amounted to 63.6%.

B22: SEQID-00642: protein of the 168 nutritive polypeptide library (protein, listed as Saccharomyces cerevisiae)
chain: MADQENSPLHTVGFDARFPQQNQTKHCWQSYVDYHKCVNMKGEDFAPCKVFWKTYNALCPLDWIEKWDDQREKGIFAGDINSD
modifications: source: /note="strain ATCC 204508 / S288c"
notes: as for B1
B22: the “% Intact Protein at 10 min” value in data set [1] came to 75%.
